From patent US20240026017A1 (Kyowa Kirin, published 2024)
Residue numbers refer to the chain shown, from its start.

T1: human CC chemokine receptor 1 (human CCR1) (human, UniProt P32246 1-355)
T1 construct: endogenous on THP-1 cells in the migration assays; also called hCCR1; CHO-S-hCCR1 (expressing cells)
T1 sequence: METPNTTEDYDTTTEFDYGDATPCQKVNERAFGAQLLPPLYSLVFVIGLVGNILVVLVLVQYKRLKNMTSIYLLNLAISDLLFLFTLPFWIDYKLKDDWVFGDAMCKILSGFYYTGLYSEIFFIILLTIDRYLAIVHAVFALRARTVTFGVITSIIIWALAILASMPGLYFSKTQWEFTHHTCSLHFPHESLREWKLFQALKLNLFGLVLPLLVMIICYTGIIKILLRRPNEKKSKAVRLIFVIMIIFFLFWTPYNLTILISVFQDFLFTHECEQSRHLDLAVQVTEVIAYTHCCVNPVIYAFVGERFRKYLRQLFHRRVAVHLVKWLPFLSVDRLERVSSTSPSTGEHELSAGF

B1: hzmAb5-06 LV2aHV17 antibody (antibody, V domains shown)
VH: QVQLQQSGPGLVKPSQTLSITCTVSGFSLNNYGVHWVRQPPGKGLEWLGVIWSAGTTVYNAAAISRLTISKDDSKSQVSFKMSSLTAADTAIYYCAKDGSRYYTAMDYWGQGTLVTVSS
VL: DIVMTQSPLSLPVTLGEPASISCRSSQSLVHRNGITFFHWYLQKPGQSPKLLIYKISNRFSGVPDRFSGSGSGTDFTLKISRVEAEDVGVYYCSQGTHVPPTFGQGTKVEIK
notes: humanized
B2: hzmAb5-06 LV2bHV17 antibody (antibody, V domains shown)
VH: B1 VH
VL: B1 VL with L15P, Y92F
notes: humanized
B3: hzmAb5-06 LV4HV17 antibody (antibody, V domains shown)
VH: B1 VH
VL: B1 VL with Y92F, V109L
notes: humanized
B4: hzmAb5-06 LV0HV17 antibody (antibody, V domains shown)
VH: B1 VH
VL: B1 VL with L15P, K50Q
notes: humanized
B5: hzmAb5-06 LV1bHV17 antibody (antibody, V domains shown)
VH: B1 VH
VL: B1 VL with K50Q
notes: humanized
B6: hzmAb5-06 LV1aHV17 antibody (antibody, V domains shown)
VH: B1 VH
VL: B1 VL with L15P
notes: humanized
B7: hzmAb5-06 LV5HV17 antibody (antibody, V domains shown)
VH: B1 VH
VL: B1 VL with I2V, Y92F, V109L
notes: humanized
B8: hzKM5907 LV2bHV2a antibody (antibody, V domains shown)
VH: EVQLLESGGGLVQPGGSLRLSCAASGFTFSRYGMSWVRQAPGKRLEWVSSISATFTYTYYTDNVKGRFTISRDNSKNTLYLQMNSLRAEDTAVYYCARQDNYAWFDSWGQGTLVTVSS
VL: DIVMTQTPLSLPVTSGEPVSISCRSSQSIVHSNGNTFLEWYLKKPGQSPQLLIYKVSSRFSGVPDRFSGSGSGTDFTLKISRVEAEDVGVYYCFQGSHIPWTFGGGTKVEIK
notes: humanized; also called hzmAb5907 LV2bHV2a
B9: hzKM5907 LV2aHV7 antibody (antibody, V domains shown)
VH: B8 VH with L4V, S49A, A92G, V93M, A97T
VL: B8 VL with V19A, Q50K
notes: humanized; also called hzmAb5907 LV2aHV7
B10: hzKM5907 LV2aHV0 antibody (antibody, V domains shown)
VH: B8 VH with R44G, R98K
VL: B8 VL with V19A, Q50K
notes: humanized; also called hzmAb5907 LV2aHV0
B11: hzKM5907 LV2bHV1 antibody (antibody, V domains shown)
VH: B8 VH with R98K
VL: B8 VL
notes: humanized; also called hzmAb5907 LV2bHV1
B12: hzKM5907 LV0HV0 antibody (antibody, V domains shown)
VH: B8 VH with R44G, R98K
VL: B8 VL with V19A, K43Q
notes: humanized; also called hzmAb5907 LV0HV0
B13: hzKM5907 LV1bHV7 antibody (antibody, V domains shown)
VH: B8 VH with L4V, S49A, A92G, V93M, A97T
VL: B8 VL with V19A, K43Q, Q50K
notes: humanized; also called hzmAb5907 LV1bHV7
B14: hzKM5907 LV0HV7 antibody (antibody, V domains shown)
VH: B8 VH with L4V, S49A, A92G, V93M, A97T
VL: B8 VL with V19A, K43Q
notes: humanized; also called hzmAb5907 LV0HV7
B15: hzKM5907 LV4HV7 antibody (antibody, V domains shown)
VH: B8 VH with L4V, S49A, A92G, V93M, A97T
VL: B8 VL with S15L, Q50K
notes: humanized; also called hzmAb5907 LV4HV7
B16: hzKM5907 LV2bHV3c antibody (antibody, V domains shown)
VH: B8 VH with A92G, A97T, R98K
VL: B8 VL
notes: humanized; also called hzmAb5907 LV2bHV3c
B17: hzKM5907 LV2bHV3b antibody (antibody, V domains shown)
VH: B8 VH with S49A, A97T, R98K
VL: B8 VL
notes: humanized; also called hzmAb5907 LV2bHV3b
B18: hzKM5907 LV2bHV2b antibody (antibody, V domains shown)
VH: B8 VH with R44G, S49A
VL: B8 VL
notes: humanized; also called hzmAb5907 LV2bHV2b
B19: hzKM5907 LV1cHV7 antibody (antibody, V domains shown)
VH: B8 VH with L4V, S49A, A92G, V93M, A97T
VL: B8 VL with K43Q
notes: humanized; also called hzmAb5907 LV1cHV7
B20: hzKM5907 LV4HV0 antibody (antibody, V domains shown)
VH: B8 VH with R44G, R98K
VL: B8 VL with S15L, Q50K
notes: humanized; also called hzmAb5907 LV4HV0
B21: hzKM5907 LV1aHV0 antibody (antibody, V domains shown)
VH: B8 VH with R44G, R98K
VL: B8 VL with V19A
notes: humanized; also called hzmAb5907 LV1aHV0
B22: hzKM5907 LV1cHV0 antibody (antibody, V domains shown)
VH: B8 VH with R44G, R98K
VL: B8 VL with K43Q
notes: humanized; also called hzmAb5907 LV1cHV0
B23: hzKM5907 LV1aHV7 antibody (antibody, V domains shown)
VH: B8 VH with L4V, S49A, A92G, V93M, A97T
VL: B8 VL with V19A
notes: humanized; also called hzmAb5907 LV1aHV7
B24: hzKM5907 LV2bHV4 antibody (antibody, V domains shown)
VH: B8 VH with R44G, S49A, A92G, A97T
VL: B8 VL
notes: humanized; also called hzmAb5907 LV2bHV4
B25: hzKM5907 LV2bHV0 antibody (antibody, V domains shown)
VH: B8 VH with R44G, R98K
VL: B8 VL
notes: humanized; also called hzmAb5907 LV2bHV0
B26: hzKM5907 LV1bHV0 antibody (antibody, V domains shown)
VH: B8 VH with R44G, R98K
VL: B8 VL with V19A, K43Q, Q50K
notes: humanized; also called hzmAb5907 LV1bHV0
B27: hzKM5907 LV2bHV7 antibody (antibody, V domains shown)
VH: B8 VH with L4V, S49A, A92G, V93M, A97T
VL: B8 VL
notes: humanized; also called hzmAb5907 LV2bHV7
B28: hzKM5916 LV0HV1 antibody (antibody, V domains shown)
VH: QVQLQESGGGLVKPGGSLKLSCAASGFTFSRNAMSWVRQTPDKRLEWVAYISSGSDYIYYADTVKGRFTISRDNAKNTLYLQMSSLKSEDTAMYYCTRFSYGYGKNAPDYWGQGTMVTVSS
VL: DIQMTQSPSSLSASVGDRVTITCKASQDINKYIAWYQQKPGKAPKLLIHYTSSLQPGVPSRFSGSGSGTDFSFTISSLQPEDLATYYCLQYDYTMTFGGGTKVEIK
notes: humanized; also called hzmAb5916 LV0HV1
B29: hzKM5916 LV2HV3 antibody (antibody, V domains shown)
VH: B28 VH with D42E, K87R
VL: B28 VL with Q38H, A43G
notes: humanized; also called hzmAb5916 LV2HV3
B30: hzKM5916 LV0HV3 antibody (antibody, V domains shown)
VH: B28 VH with D42E, K87R
VL: B28 VL
notes: humanized; also called hzmAb5916 LV0HV3
B31: hzKM5916 LV0HV0 antibody (antibody, V domains shown)
VH: B28 VH with T97A
VL: B28 VL
notes: humanized; also called hzmAb5916 LV0HV0
B32: hzKM5916 LV2HV1 antibody (antibody, V domains shown)
VH: B28 VH
VL: B28 VL with Q38H, A43G
notes: humanized; also called hzmAb5916 LV2HV1
B33: chKM5908′ mut05 (antibody, V domains shown)
VH: QVQLKQSGPGLVQPSQSLSITCTVSGFSLNNYGVHWVRQPPGKGLEWLGVTWSAGTTVYNAAFISRLSISKDDSKSQVFFKMNSLQAGDTAIYYCAKDGSRYYTAMDYWGQGTSVTVSS
VL: DVVMTQTPLSLPVSLGDQASIFCRSSQSLVHRNGITFFHWYLQKPGQSPKLLIYKVSNRFSGVPDRFSGSGSGTDFTLKISRVAPDDLGVYFCSQGTHVPPTFGGGTKLEIK

target: T1, human CC chemokine receptor 1 (human …); assay: flow cytometry on CHO-S-hCCR1 cells; bound = fluorescence 10 times or more that of isotype control hzDNP1
Method: (§1) The antigen affinity of the chKM5908′ antibody, which is a VL-substituted chimeric antibody, was measured by flow cytometry using the CHO-S-hCCR1 cells produced in Example 2. The cells were collected by centrifugation, the supernatant was removed, and the cells were suspended in PBS (Staining Medium, hereinafter, abbreviated as SM) containing 2% fetal bovine serum (FBS), 0.05% NaN₃, and 1 mM EDTA. Next, the cells were seeded in a 96-well plate so that the number of cells is 1×10⁵ per well, and the chKM5908′ antibody was added at each final concentration of 10,000, 2,000, 400, 80, 16, and 3.2 ng/mL, and the reaction was performed at 4° C. for 60 minutes. After washing the cells with SM, Goat F (ab′)₂ Anti-Human IgG PE (γ chain specific) (Southern Biotech) diluted 500-fold with SM was added and reacted at 4° C. for 60 minutes. After washing the cells with SM, the cells were resuspended in 50 μL of SM, and the fluorescence intensity was measured by the flow cytometry (FACS Canto II, BD Biosciences).
Next, a modified antibody was obtained using the method described in Example 12-(3). […] Hereinafter referred to as hzDNP1)] were determined to bind to the human CCR1.

Binding result, binds:
B1
B2
B3
B4
B5
B6
B7
B8
B9
B10
B11
B12
B13
B14
B15
B16
B17
B18
B19
B20
B21
B22
B23
B24
B25
B26
B27
B28
B29
B30
B31
B32

target: T1, human CC chemokine receptor 1 (human …); assay: flow cytometry on CHO-S-hCCR1 cells; bound = fluorescence 10 times or more that of isotype control chDNP1
Method: as §1
1996 June; 33 (9):759-68, hereinafter, referred to as chDNP1)] were determined to be bound to the human CCR1.

Binding result, binds:
B33
